Experimental data reported in patent US20200317768A1 (published 2020).
Numbering of substitutions follows the chain as printed. In names and notes the source's numbering stands.

T1: cynomolgus monkey FcγRIIa1 extracellular domain, C-terminal His-tag (cynomolgus monkey)
T1 construct: also called cyno FcγRIIa1; FcgRIIa1; not shown: His-tag added to the C-terminus
T1 chain: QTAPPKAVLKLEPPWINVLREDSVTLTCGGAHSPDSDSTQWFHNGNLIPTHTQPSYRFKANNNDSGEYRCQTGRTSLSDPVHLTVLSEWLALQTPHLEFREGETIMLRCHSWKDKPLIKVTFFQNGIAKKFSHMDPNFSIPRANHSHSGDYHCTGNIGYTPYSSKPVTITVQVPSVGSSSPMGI

T2: cynomolgus monkey FcγRIIa2 extracellular domain, C-terminal His-tag (cynomolgus monkey)
T2 construct: also called cyno FcγRIIa2; FcgRIIa2; not shown: His-tag added to the C-terminus
T2 chain: T1 chain with P95T, T121A, I127K, A128S, K130N, D135N, R142Q

T3: cynomolgus monkey FcγRIIa3 extracellular domain, C-terminal His-tag (cynomolgus monkey)
T3 construct: also called cyno FcγRIIa3; FcgRIIa3; not shown: His-tag added to the C-terminus
T3 chain: T1 chain with P95T, T121A, A128S, H133P, D135N

T4: cynomolgus monkey FcγRIIb extracellular domain, C-terminal His-tag (cynomolgus monkey)
T4 construct: also called cyno FcγRIIb; cynoFcγRIIb; not shown: His-tag added to the C-terminus
T4 chain: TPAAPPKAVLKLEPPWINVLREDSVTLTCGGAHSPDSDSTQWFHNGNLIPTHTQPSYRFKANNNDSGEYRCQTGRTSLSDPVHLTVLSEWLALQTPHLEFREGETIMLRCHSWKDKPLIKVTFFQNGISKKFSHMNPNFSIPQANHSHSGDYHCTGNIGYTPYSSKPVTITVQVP

T5: human FcγRIIaR extracellular domain, C-terminal His-tag (human, UniProt P12318 34-217)
T5 construct: also called human FcγRIIa (type R); FcgRIIaR; not shown: His-tag added to the C-terminus
T5 chain: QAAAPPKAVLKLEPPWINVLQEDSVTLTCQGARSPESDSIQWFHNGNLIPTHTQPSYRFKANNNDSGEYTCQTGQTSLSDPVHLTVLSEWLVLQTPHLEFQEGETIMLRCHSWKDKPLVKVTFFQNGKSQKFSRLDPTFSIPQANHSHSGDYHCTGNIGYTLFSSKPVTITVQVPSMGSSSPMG

T6: human FcγRIIb extracellular domain, C-terminal His-tag (human, UniProt P31994 43-217)
T6 construct: also called FcgRIIb; not shown: His-tag added to the C-terminus
T6 sequence: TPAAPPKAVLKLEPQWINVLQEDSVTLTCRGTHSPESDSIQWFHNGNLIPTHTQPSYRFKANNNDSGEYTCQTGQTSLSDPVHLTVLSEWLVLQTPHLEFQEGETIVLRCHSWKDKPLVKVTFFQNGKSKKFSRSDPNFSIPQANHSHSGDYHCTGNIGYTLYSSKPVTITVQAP

T7: human FcγRIIaH extracellular domain, C-terminal His-tag (human, UniProt P12318 34-217)
T7 construct: also called human FcγRIIa (type H); FcgRIIaH; not shown: His-tag added to the C-terminus
T7 sequence: T5 chain with R134H

B1: MS1032LO06-SG1 (M103205H795-SG1/M103202L889-SK1) (antibody, human IgG1, kappa)
heavy: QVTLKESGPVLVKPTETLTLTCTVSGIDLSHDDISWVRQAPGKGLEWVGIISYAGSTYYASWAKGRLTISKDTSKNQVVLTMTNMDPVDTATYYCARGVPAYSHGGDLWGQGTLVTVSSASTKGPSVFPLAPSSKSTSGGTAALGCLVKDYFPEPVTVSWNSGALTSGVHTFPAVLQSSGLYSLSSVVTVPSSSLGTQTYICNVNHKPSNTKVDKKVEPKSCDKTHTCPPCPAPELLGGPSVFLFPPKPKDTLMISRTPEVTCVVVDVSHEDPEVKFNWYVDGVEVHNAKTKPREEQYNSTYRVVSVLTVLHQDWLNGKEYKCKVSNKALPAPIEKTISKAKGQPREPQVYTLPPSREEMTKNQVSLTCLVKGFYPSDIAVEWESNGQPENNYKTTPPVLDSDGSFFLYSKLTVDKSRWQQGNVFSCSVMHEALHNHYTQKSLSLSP
light: DIVMTQSPATLSLSPGERATLSCTSSQSVYHANWLSWFQQKPGQPPKLLIYWASTLAYGVPSRFSGSGSGTDFTLTISSLQPEDAATYYCAGGYGGGRYAFGQGTKVEIKRTVAAPSVFIFPPSDEQLKSGTASVVCLLNNFYPREAKVQWKVDNALQSGNSQESVTEQDSKDSTYSLSSTLTLSKADYEKHKVYACEVTHQGLSSPVTKSFNRGEC
notes: Anti-latent myostatin antibody
B2: MS1032LO06-PK56 (M103205H795-PK56/M103202L889-SK1) (antibody, human IgG1, kappa)
heavy: QVTLKESGPVLVKPTETLTLTCTVSGIDLSHDDISWVRQAPGKGLEWVGIISYAGSTYYASWAKGRLTISKDTSKNQVVLTMTNMDPVDTATYYCARGVPAYSHGGDLWGQGTLVTVSSASTKGPSVFPLAPSSKSTSGGTAALGCLVKDYFPEPVTVSWNSGALTSGVHTFPAVLQSSGLYSLSSVVTVPSSSLGTQTYICNVNHKPSNTKVDKKVEPKSCDKTHTCPPCPAPELLNGPSVFLFPPKPKDTLMISRTPEVTCVVVDVSDEDPEVKFNWYVDGVEVHNAKTKPREEQYNSTYRVVSVLTVLHRDWLNGKEYKCKVSNKALPKPIEKTISKAKGQRREPQVYTLPPSREEMTKNQVSLTCLVKGFYPSDIAVEWESNGQPENNYKTTPPVLDSDGSFFLYSKLTVRKSRWQQGNVFSCSVMHEALHNHYTQKSLSLSP
light: B1 light
notes: CH PK56 = SG1 with G236N/H268D/Q311R/A330K/P343R/D413R (EU numbering); also called MS103205H795-PK56
B3: MS1032LO06-MY352 (M103205H795-MY352/M103202L889-SK1) (antibody, human IgG1, kappa, name in EU numbering)
heavy: B2 heavy with R345P
light: B1 light
notes: Printed substitutions: G236N/H268D/Q311R/A330K/D413R (EU numbering); also called MS103205H795-MY352
B4: MS1032LO06-PK55 (M103205H795-PK55/M103202L889-SK1) (antibody, human IgG1, kappa)
heavy: B2 heavy with R415D
light: B1 light
notes: CH PK55 = SG1 with G236N/H268D/Q311R/A330K/P343R (EU numbering); also called MS103205H795-PK55
B5: MS1032LO06-MY201 (M103205H795-MY201/M103202L889-SK1) (antibody, human IgG1, kappa)
heavy: B2 heavy with R313Q, R345P, R415D
light: B1 light
notes: CH MY201 = SG1 with G236N/H268D/A330K (EU numbering); also called MS103205H795-MY201
B6: MS1032LO06-PK57 (M103205H795-PK57/M103202L889-SK1) (antibody, human IgG1, kappa)
heavy: B2 heavy with R345P, N386R
light: B1 light
notes: CH PK57 = SG1 with G236N/H268D/Q311R/A330K/N384R/D413R (EU numbering); also called MS103205H795-PK57
B7: MS1032LO06-MY351 (M103205H795-MY351/M103202L889-SK1) (antibody, human IgG1, kappa)
heavy: B2 heavy with R345P, R415K
light: B1 light
notes: CH MY351 = SG1 with G236N/H268D/Q311R/A330K/D413K (EU numbering); also called MS103205H795-MY351

Target: T1, cynomolgus monkey FcγRIIa1 …
Test: SPR; KD of SG1 divided by KD of variant;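 also: relative to parent M103205H795-SG1 carrying the SG1 human heavy chain constant region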
Method: (§1) The kinetic analysis of interactions between these antibodies and FcγR was carried out using BIACORE® T200 or BIACORE® 4000 (GE Healthcare). HBS-EP+ (GE Healthcare) was used as the running buffer, and the measurement temperature was set to 25° C. A chip produced by immobilizing Protein A. Protein A/G or mouse anti-human IgG kappa light chain (BD Biosciences) onto a Series S Sensor Chip CM4 or CM5 (GE Healthcare) by the amine-coupling method was used. […] After the measurement, the antibody captured on the chip was washed off by allowing reaction with 10 mM glycine-HCl, pH1.5 and 25 mM NaOH so that the chip was regenerated and used repeatedly. The sensorgrams obtained as measurement results were analyzed by the 1:1 Langmuir binding model using the BIACORE® Evaluation Software to calculate the binding rate constant ka (L/mol/s) and dissociation rate constant kd (l/s), and the dissociation constant KD (mol/L) was calculated from these values. […] Regarding such interactions, KD values were calculated using the following 1:1 binding model described in BIACORE® T100 Software Handbook BR1006-48 Edition AE.

KD fold (SG1 = 1)	Binder
1 fold	B1
2.6 fold	B2
2.7 fold	B3
3.3 fold	B4
3.2 fold	B5
2.5 fold	B6
3 fold	B7

Target: T2, cynomolgus monkey FcγRIIa2 …
Test: SPR; KD of SG1 divided by KD of variant;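 also: relative to parent M103205H795-SG1 carrying the SG1 human heavy chain constant region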
Method: as §1

KD fold (SG1 = 1)	Binder
1 fold	B1
3.1 fold	B2
3.5 fold	B3
4.1 fold	B4
4 fold	B5
2.8 fold	B6
3.6 fold	B7

Target: T3, cynomolgus monkey FcγRIIa3 …
Test: SPR; KD of SG1 divided by KD of variant;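 also: relative to parent M103205H795-SG1 carrying the SG1 human heavy chain constant region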
Method: as §1

KD fold (SG1 = 1)	Binder
1 fold	B1
3.5 fold	B2
3.9 fold	B3
4.3 fold	B4
4.9 fold	B5
2.7 fold	B6
4 fold	B7

Target: T4, cynomolgus monkey FcγRIIb extracellular …
Test: SPR; KD of SG1 divided by KD of variant;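 also: relative to parent M103205H795-SG1 carrying the SG1 human heavy chain constant region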
Method: as §1

KD fold (SG1 = 1)	Binder
1 fold	B1
3.9 fold	B2
4.7 fold	B3
5.4 fold	B4
5.8 fold	B5
3.8 fold	B6
5 fold	B7

Target: T5, human FcγRIIaR extracellular domain, …
Test: SPR; KD of SG1 divided by KD of variant
Method: as §1

KD fold (SG1 = 1)	Binder
1 fold	B1
0.5 fold	B2
0.6 fold	B3
0.7 fold	B4
0.8 fold	B5
0.5 fold	B6
0.6 fold	B7

target: T6, human FcγRIIb extracellular domain, …; test: SPR; KD of SG1 divided by KD of variant
Method: as §1

KD fold (SG1 = 1)	Binder
1 fold	B1
4.7 fold	B2
4.6 fold	B3
6.3 fold	B4
5.6 fold	B5
4.1 fold	B6
4.9 fold	B7

target: T8, human FcγRIIIaV extracellular domain, C-terminal His-tag (human, UniProt P08637 17-208); test: SPR; KD of SG1 divided by KD of variant
T8 construct: also called FcgRIIIaV; not shown: His-tag added to the C-terminus
Method: as §1

T8 sequence (P08637 17-208 F176V): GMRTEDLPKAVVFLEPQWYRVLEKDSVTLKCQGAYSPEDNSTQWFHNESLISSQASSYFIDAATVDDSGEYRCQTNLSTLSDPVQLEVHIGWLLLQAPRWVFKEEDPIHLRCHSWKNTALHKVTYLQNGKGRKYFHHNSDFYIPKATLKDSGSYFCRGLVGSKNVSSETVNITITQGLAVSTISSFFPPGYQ

KD fold (SG1 = 1)	Binder
1 fold	B1
0.06 fold	B2
0.06 fold	B3
0.05 fold	B4
0.02 fold	B5
0.03 fold	B6
0.08 fold	B7

target: T7, human FcγRIIaH extracellular domain, …; test: SPR (BIACORE), antibody captured, soluble FcgR as analyte, 25C
Method: as §1
The behavior of interacting molecules according to the 1:1 binding model on BIACORE® can be described by Equation 1: Req=C·R max/(KD+C)+RI, wherein, Req is a plot of steady-state binding levels to analyte concentration. C is concentration, RI is bulk refractive index contribution in the sample, and Rmax is analyte binding capacity of the surface. When this equation is rearranged, KD can be expressed as Equation 2: KD=C·Rmax/(Req−RI)−C. KD can be calculated by substituting the values of Rmax, RI, and C into Equation 1 or Equation 2. From the current measurement conditions, RI=0, C=2 μmol/L can be used.

Kd	Binder
890 nM	B1
1200 nM	B2
1200 nM	B3
830 nM	B4
980 nM	B5
1300 nM	B6
1200 nM	B7
